These results are taken from IntAct's records for PubMed 21621563.

First the molecules themselves.
B1: Forkhead box protein O3 (Homo sapiens), O43524 (parent)
chain: MAEAPASPAPLSPLEVELDPEFEPQSRPRSCTWPLQRPELQASPAKPSGETAADSMIPEEEDDEDDEDGGGRAGSAMAIGGGGGSGTLGSGLLLEDSARVLAPGGQDPGSGPATAAGGLSGGTQALLQPQQPLPPPQPGAAGGSGQPRKCSSRRNAWGNLSYADLITRAIESSPDKRLTLSQIYEWMVRCVPYFKDKGDSNSSAGWKNSIRHNLSLHSRFMRVQNEGTGKSSWWIINPDGGKSGKAPRRRAVSMDNSNKYTKSRGRAAKKKAALQTAPESADDSPSQLSKWPGSPTSRSSDELDAWTDFRSRTNSNASTVSGRLSPIMASTELDEVQDDDAPLSPMLYSSSASLSPSVSKPCTVELPRLTDMAGTMNLNDGLTENLMDDLLDNITLPPSQPSPTGGLMQRSSSFPYTTKGSGLGSPTSSFNSTVFGPSSLNSLRQSPMQTIQENKPATFSSMSHYGNQTLQDLLTSDSLSHSDVMMTQSDPLMSQASTAVSAQNSRRNVMLRNDPMMSFAAQPNQGSLVNQNLLHHQHQTQGALGGSRALSNSVSNMGLSESSSLGSAKHQQQSPVSQSMQTLSDSLSGSSLYSTSANLPVMGHEKFPSDLDLDMFNGSLECDMESIIRSELMDADGLDFNFDSLISTQNVVGLNVGNFTGAKQASSQSWVPG

In experiment [1] the parent is B1. Particulars: with 1433z_mouse Ywhaz.
The variants in the experiment “akt1_human AKT1, P31749” derive from B1. Particulars: with akt1_human AKT1, P31749.
Sequence of akt1_human AKT1, P31749 (P31749 whole entry): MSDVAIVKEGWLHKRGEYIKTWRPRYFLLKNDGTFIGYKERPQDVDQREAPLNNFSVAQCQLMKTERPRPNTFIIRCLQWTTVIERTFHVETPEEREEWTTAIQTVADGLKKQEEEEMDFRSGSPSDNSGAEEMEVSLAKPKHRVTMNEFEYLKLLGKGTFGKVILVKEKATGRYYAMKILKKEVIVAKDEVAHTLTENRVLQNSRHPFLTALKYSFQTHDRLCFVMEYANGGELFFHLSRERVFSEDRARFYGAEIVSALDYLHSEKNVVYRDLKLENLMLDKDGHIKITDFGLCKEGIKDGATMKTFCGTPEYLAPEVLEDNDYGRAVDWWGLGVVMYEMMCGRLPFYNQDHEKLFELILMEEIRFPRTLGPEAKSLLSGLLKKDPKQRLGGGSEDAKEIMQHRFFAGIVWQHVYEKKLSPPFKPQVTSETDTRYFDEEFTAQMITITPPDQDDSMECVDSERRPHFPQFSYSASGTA

With R27L;R29L;R248L;R250L;R310L;R312L, the “effect of a mutation on the interaction” value in experiment [1] is “disrupting interaction strength”; with akt1_human AKT1, P31749, “decreasing interaction strength”.
As for P34A, the “effect of a mutation on the interaction” value in experiment [1] is “decreasing interaction strength”; with akt1_human AKT1, P31749, “with no effect”.
Consider T32A;S253A;S315A, for which the “effect of a mutation on the interaction” value in experiment [1] is reported as “disrupting interaction strength”; with akt1_human AKT1, P31749, “decreasing interaction strength”.
The matching figures for R27L;R29L;R248L;R250L: “disrupting interaction strength” and “decreasing interaction strength”.
Consider R27L;R29L, for which the “effect of a mutation on the interaction” value in experiment [1] is “disrupting interaction strength”; with akt1_human AKT1, P31749, “with no effect”.
